Test results reported in the DeepSol protein solubility set.

Test: soluble on expression in E. coli; label from the status in PepcDB or PDB records

Sequence	soluble on expression in E. coli
MGSDKIHHHHHHMPNHDALAGGKVHLRRGVDLQVSHSPGVYPPLVFIHGGTGNRFNFRMQYEFAQAQGWEVLAYDLGGNGQSSRYSRYSIGRHCRDLARLLVRFGVESPVLCCHSYGVPIGLEFVQHHPVSAIIAIAGGTHDLAPWWEIPLMKFMAGGGRYLLHLPGVQKINKLLSTSYSHSVMERFFVENPPPTDFDAYKGLEIFWDYNFFIRHPLPKNLHIPALVITADKDPTFTANMGDELANHFDDGTHLHFAKGGHLVMAESAELVNEAIANWLIQKLTIN	not soluble
MGSDKIHHHHHHMPNNALLQIKQDTLSLIDDLKVICTSFGLGNDGNEYKIITQCFLYKFLCDKFEFLFEQEFPNQTIQDYKDFNKEEKEEFFITLTDKRLPKLAYDDLLNYLFEKHFNDNDLHLKLDIIFNRISSNNAELFNTTSTDKTTIALFESISQYINEESKRANFTRVLLDKLKKFNFKQAFLNLQNQQGYDFFAPIFEYLLKDYNNAGGGKYAEYYTPLSIASIIAKLLINEPTRNVKIYDPSAGTGTLLMALAHQIGTDSCTLYAQDISQKSLRMLKLNLILNDLTHSLRNAIEGNTLTNPYHSKDFKGKMDYIVSNPPFKLDFSNEHAEISQNKNDFFLGVPNIPKNNKSKMPIYTLFFQHCLNMLSNKGKGAIIVPTGFISAKSGVENKIIRHLVDERLVYGVVCMPSQVFANTGTNVSIIFFQKTPSAKEVVLIDASKLGEEYTENKNKKTRLRPSDIDLILETFQNKTKKSDFCALVSFDEITEKIIL	not soluble
MGSDKIHHHHHHMPPAKTQEFDPSRIKEPNSPSVITKAATLMDVLRTEGPTNSARLAEVLGEPISSVYRMLHTLTAIGWVEQDGKRGSYRVGLAMLTLAELQLRHMDLRKIAALTMRKIHALTGETTFLCVRHGIRAVCIERVDGDRVNSRVLQLGTSLPLHVGAAPRALLAFEGRRAWETYATNLGFEGHNWSKGPSRGELFQHLDEDRDKGFCLVDNEITPGIAAVGAPIYNHRGEVVASLSMSGLRDGILSDTTDYSAVELILQGSAEISQALGATIEHNGGNQKLPQVTPLSIVV	not soluble
MGSDKIHHHHHHMPQFSPSYSFPVQIYYEDTDFSGVVYHPNFLKYFERAREHVIGAEQLRNLWQQQQLGFAVYRSDMLCHEGVEFADIIDIRTKFYFESKYRTVWHQEIWRPNGKKPAVTATIEMVCMNQARQLAPMPAELITQLSLGM	not soluble
MGSDKIHHHHHHMPRKPIPALPPLDWLRSFEAAARLSNFTAAAAELGLTQAAVSQHIRLLEERLKTRLFSRLARGVALSPEGAAYLPHIQSAFATISSSTTELFEPRAVQTVSIRVPISFALLILVPALPDLAEALPRIQLDLVTIHRPTDYDLPGSALDIRFGNGSFPGREAGRLTAERLVPVASPALAGAADWTALPLLLVAGAREMWAEWFAAAGLAGHPQRSHRFDSFVAAMEAASAGAGVLLGSRPLVDAALRNRTLVPLSDFELSSSSGHFLTSASTARLTSAEQDFRQWLLGHLSRKAPA	not soluble
MGSDKIHHHHHHMPSVVGHPQGNIEAIAFVIKFLEGLGFDIRITDIEKTEQPTIIAHYPGRLSDNKIVIYGHYDVAPVKELNSWVSEEAFTLENINGRLYGRGIADNKGPLMARMIALKSLILSDKAIPEILWLIQGEEEITQGDRVAHDIFKDEIPAFGAPVYIEETGFNDLDSNTQIAFLWSPDKSDSELIPWHSLLESSLDSPRIEYRHLNKLNGIKACPLLYNLPKNAVYMGFGPNDRLHFIHRDNESLNENKLLKHQQQFEKFLANYALYNDES	not soluble
MGSDKIHHHHHHMPTIHLIDGEKGGVGKSLVARTMIQYCLDNNMPFVPVETDRSNPDVAGVYKGICQYAVFTEDERHADKADKIFEIAMNKTVIANLAAQSHRAVKGWIEKNHLIELGESQGVDFCKWFVSTGGYDSLNLFKQSVNSYGGKVPHILVKNLGLCDDWEHVNSDATIQEVVKKYNVKAIDFPKLAYKERNIIDQHRLTFADAREYKEFGIISKQRVVNFLKLAYASFETVGIWYEEVK	not soluble
MGSDKIHHHHHHMPTPADDLVVIGKIVSVYGIRGEVKVYSFTDPLDNLLDYRRWTLRRDGEIRQAELVRGRLHGKVLAAKLKGLDDREEARTFTGYEICIPRSELPSLEEGEYYWHQLEGLKVIDQGRQLLGVIDHLLETGANDVMVVKPCAGSLDDRERLLPYTGQCVLSIDLAAGEMRVDWDADF	soluble
MGSDKIHHHHHHMQATRESRLIFNINLIYGRLQRNCYGLVALLLCFTSTSAAALDSPVFYKIEYQQQQAYLLGSIHVGRQDFYPLAQHIESAFKQSDALVVEADISQGDTGALLQRYGGLPAEIAADVNATRQEYCQSHQTLCQALAPYAPWLQSAQISMGRFGQLGYSAEQGVDAYFMANRSGKNVVELESIQFQFELISSFSTATQLQMLDDSINASDAEMLDLIYAWRQGDGNALANIMESQAGDADELLEKLLWQRNHTMAQKIIQLLQSKTHKQLFIVVGAGHIVGQQAIPDLLKQQGATITRCSFLQC	not soluble
MGSDKIHHHHHHMQDIDDFLRQHRITEVEAIIPDMAGIARGKIIPRNKFETGESMRLPQAVMVQTVTGDYPEDGTLTGVTDPDMVCVADASTICLIPWAVDPTAQVIHDCVHFDGSPVEISPRYVLRRVLDLYRARGWKPVVAPELEFYLVDMNKDPDLPLRPPVGRTGRAETGRQSYSIEAVNEFDPLFEDIYEYCELQGLDIDTLIHEVGAAQMEINFLHGDALSLADQVFLFKRTVREAALRHNMYATFMAKPMESEPGSAMHIHQSVVDIETGRNLFIGASGDVTPMFRSYLAGLQKYTPALMPIFAPYINSYRRLSRFMAAPINVQWGYDNRTVGFRIPHSAAAARRIENRIPGVDCNPYLAIAGTLAAGYLGVTQGLEPTEPLASDGYSLPYQLPRNLEEGLTLMSACAPLAEMLGEKFVKAYLALKETEYEAFFRVISSWERRHLLLHV	not soluble
MGSDKIHHHHHHMQGVEPRERPYPQPNIQISYKKMEECPICLADDQEGEQFGCLNVCGHKFHLNCIREWHKYSINLKCPICRVESTHLEVGEGQHALSINLKMGFMIKNAIDYVGAETTNERNEDDTGEQDQEIEFLSERLRGTLVMDTIKIIQCSICGDTDVSRLSLYCQDCEAIYHETCLRGLACEVGDRNTWQECTDCRSNALLELRMGAISSQLASYDSRNSMIFAGELRDKHSVKTQQMYEQIRNAKHKIQMHVRRALDRYPLPLLRFKDAYKHVNKQVSRKLYRLSDNKYLPDQYDYDSLARTGVHTELLIYCHDE	not soluble
MGSDKIHHHHHHMQIKNTQLGHIAWCETTAQHIAPQDFAVDGWREKNAVVGQSKGRYTTWFVKTDNSDSPQTWVLRHYWRGGMMEKFSRDAYFYTGLQRTRAVAELAILEVLYQEGFAVPRPIAANVERFGLWYRADIIIEHVAGANDLVAYLSHNPMTESQWYLLGETIAKFHQRGVYHADLNAKNILLAHGEFYLIDFDRGELRTPQPTWQQANLDRLLRSFNKEHAKLTTLQFSQQHWLQLLAGYQSINPI	not soluble
MGSDKIHHHHHHMQIYASLLLILKLERKLCIFSGKVMELYEMYYFAFNKSSEPMLFADPNTGRIFDVNQAFLALLGYAKDEVMVKTTFDLGLLPEEDSQPRQPLWVKTKNGSLKSGMVSATDLVHKEKMMRLMVFQEQSENGNFTLEEMLTQTISLISKISEFRDPYTSGHQKRTQKLACAIASEMKLSGEAIHHVSMAAAIHDVGKIYISSDILNKPGKLTQLEYQMLQTHVEVGYEIIKDFQLPWQIPEIISQHHERLDGSGYPKGLTASQIFLESKILAVADVVDAMNSHRPYRPALGIEAALEEICNYKGEKYDSEVVEHCVRLFKEKQAMPNRFKI	not soluble
MGSDKIHHHHHHMQIYLANPRGFCAGVDRAIAIVNEALLRFEPPIYVRHEVVHNKFVVSDLANRGAVFVEELHEVPDGSIVIFSAHGVSKAVEDEAERRDLTVFDATCPLVTKVHIEVAKFAQDGMDAVLIGHAGHPEVEGTMGRFNHRHGGRIHLVENESDVEALSVQDAERLAFVTQTTLSMDDTARVIDALREKFPHIQGPRKDDICYATQNRQDAVKHLASRCEVVLVVGSPNSSNSNRLRELAERMNCRAYLIDNATEMDINWFDGIQSVGVTAGASAPEVLIQEVLQQLQDWGGDLPSELSGIEENVTFSLPKALRIPMTQVGK	not soluble
MGSDKIHHHHHHMQKHNIKRDCCKLLYLLICNSLFYRRSIMGVKVVKDLVYSYIEIDESVQKLIDTASFQRLKRIKQLSSSYIFPSTNHTRYEHSIGVMHLACNFFEVLEKDFRKYGLTEDRISYLRLHIKLAGLLHDVGHPPFSHLGEKFLDKNEIIACIKNEYSHLVDVDKTFYNNGRLIGKEHELLSCYCILRKFYKILKEEIDKNIDVAFICRCIIGNTYPDSENWDKNICVRIISSDSIDVDKLDYLTRDNHMTGEIAPKMDIKRLLACLTITENKELKYVAKAIPAVQTVVDSRDILYLWVYHHHISIYTDYIIGRILKRCMTLYDEHRGQALEEMNREEYFSPKAITDYLITDDDIYSHLRKIYVLSLEGKVDDFNTIIIKQIFERDFLKPLWKTIYEYKDFEKNLVDKKIIKSYDELEDILKNEKNIEDITNTLLKKLNLKEGEVFIITKYNKFYNSNKEAPISLLLNGEERKLSDLLPQKEFGKFHTMAFFVFVPKKYKKEAKEIVIEELQKISQT	not soluble
MGSDKIHHHHHHMQLEVMEHYGIIKYFRDADYFETEHQRRIFNQLKKVIPEGQLIALSGVVGSGKTTTLSRLQDLLAKEKKVIVAKSLSVEKTKTNLGTLITALFYDVSGDKDYRVPKLGEKRERELRDLIQDVKKPVVLLVDEAHDLHHRTLTGLKRLMEVIRDGGGKLSILLAGHPKLKNDLKGPTMEEVGYRTIVVSLDAMQGNLREYVYWLLDNCTDDKTKPTDVIEEQAIDYLVERLTTPLQIEQHLSLALEEGFNVGVKPITVDVLDLTLSRRINDIEPRLIRHGYSEKVLVDQFHYKPAELRKFFKGELDANRVKEITQDLREAGLPI	not soluble
MGSDKIHHHHHHMQLLEFPNIAIIAGENAVPVAQLPLVWQDIAKGTANVGLCNPQIYVEMAQLFLYKLEQGDVDLFNERPELAHLKSSFCQLFGQLGRETLEFYGYDFMTHNYPNFEEILREVESKDADYGKVARIGLELFQEFGYELPASFYHVHLAPIYRDHVFEERALRFDKRDIEHKRSWDAILHAGKVFAVQMKVQSIASKYGFTYQHGCGCNSHLSSIDESRGTFAYELSQEKRDRWIRSFIWTAWYEYAFFPIVPNTSYLV	not soluble
MGSDKIHHHHHHMQNIVDNTLLLSYLNNEYIKKLFQQFNHPFKILRYEAKETVLHEGEMIDGLYIQMSGRTKITSSVITGKALLLRFCSAVSIMGDIELIQSVNIQSHVTSEQQTDFLFIDKNYVTSYLLQDVIFLQELIHHVTYKLQTCTTASRINLLASVETRFASYLCTARNPSNLFGREIHTKDHHEIASLIGTTTRHLNRVIEKLIANNIMHKNNKQIVVDDWKAIDTLSNGLRYE	not soluble
MGSDKIHHHHHHMQNVGLVMGKSSITDFSFAVNPSAIPKFGEYVTAINRDGEEVIGIVREISNFNRMILDEGFSFEYLVKNLDFSRRLIEKNDVIVATATVIGVVKDGEVYPNRTPIKPNSEVFLADDDVLSSLFKCDRGVELGRMIARPDISVSLDIKQLVLRHFAILSVTGGGKSNTVAVLVNDIVKKLNGTVVLIDPHGEYVGYTFEDGSERGKNVVPAGIRPERLEPWEFASLVGVDREKAAVQRMHLERIFTTVRHEGKAGREFVERVLDIAEEWINIAAGKGEAEYYDFNGIKRVATLDRQDLNALARIKEYVSSFMRRYEDLLSQNDMLANIKPSYLNVVNLSGFDEGQMRVVVAYLLRNLLVGRINYVRGKKGWEKICPAIVKPLLVIFEEGHIFAPKGVNNDVVSWMGRIAREGRKFGIGLGIVSQRPKRLNDDVLSQCNTKIILRITEPNDQRYVQHASEQISEDLLKDIASLGVGEAVVVGPAVKLPVAVKIRKFAGNYGGRDIDVVEEWLGREEEQKKQVTLEDLAV	not soluble
